# From patent publication US20060281702A1, “Combinatorial selection of phosphorothioate aptamers for RNases” (priority 2005, published 2006)
# “Also recorded” adds a separate entry of the source. Where two headings read alike, the source gives them in different places.
# B1: R12-2: 62-mer duplex DNA thioaptamer, monothiophosphate 5′ to dA, selected against RNase H domain of HIV-RT; probably SEQ ID NOS. 1 and 2 (nucleic acid)
# chain 1: AATGCTTCCACGAGCCTTTCGGGGTTGGTGTACAGTGGATGGCTGCGAGGCGGTAGTCTATTC
# chain 2: GAATAGACTACCGCCTCGCAGCCATCCACTGTACACCAACCCCGAAAGGCTCGTGGAAGCAT
# modifications: DNA, backbone and methylation of C not given here; duplex DNA thioaptamer, monothiophosphate 5' to dA
# notes: 62-mer duplex DNA thioaptamer, monothiophosphate 5′ to dA, selected against RNase H domain of HIV-RT; 1 and 2
# Legend:
# [1] = biological target: T1, HIV-RT (Human immunodeficiency virus type 1 group M subtype B, UniProt P04585); assay: EMSA binding to intact HIV-RT
# T1 construct: The 66 kDa domain, p66, contains an RNase H domain in addition to the DNA polymerase domain; purchased Amersham Bioscience (Piscataway, N.J.)
# Experimental: Electrophoresis Mobility Shift Assay (EMSA). One of the selected thioaptamers (R12-2) was used to test the specific binding to RNase H. R12-2 was labeled with fluorescein at the 5′-end by enzymatic synthesis and was incubated with increasing concentrations of HIV-RT RNase H in Tris-HCl buffer (50 mM. pH 8), MgCl2 (10 mM) and DTT (40 mM) at 37° C. for 30 minutes. The reaction mixture was loaded on an 8% native polyacrylamide gel, electrophoresed and analyzed on the Flor Chem 8800 imager (Alpha Innotech, CA). Similar experiment was performed with the E.coli RNase H, to test whether R12-2 binds to the RNase H from E.coli.
# Next, the binding of R12-2 to the intact HIV-RT by EMSA methods was also determined. In FIG. 4a, the protein in the band was detected by staining the gel with Coomassie blue.
# [2] = biological target: T2, isolated domain of RNase H HIV-RT (Human immunodeficiency virus type 1 group M subtype B, UniProt P04585); assay: NMR titration of R12-2 with isolated RNase H domain; format: binding, HIV-1; details: addition of RNase H to R12-2
# T2 construct: encodes the 15 kDa RNase H domain of HIV-RT; made in house; host or cells: E. coli
# Experimental: NMR Spectroscopy. Uniformly ^15N labeled RNase H and chemically synthesized R12-2 were used to monitor the binding of the R12-2 thioaptamer to the isolated domain of RNase H. The oligonucleotide concentrations were calculated from the absorbance value and using the molar absorption coefficients calculated using the nearest neighbor parameters. ^15N-HSQC spectra (26) of the isolated RNase H in the presence of 25 mM MgCl2 were acquired on Varian UnityPlus 750 MHz instrument equipped with pulse field gradients and using triple resonance probes. One dimensional proton NMR and 2D NOESY spectra (250 ms mixing time) of R12-2 thioaptamer in 95% H2O/5% D2O were collected at 750 MHz. The signals from the […] imino protons of R12-2, that are very sensitive to changes in the DNA conformation, were monitored during the titration of RNase H to the R12-2.
# [3] = biological target: T3, RNase H activity of intact HIV-RT (Human immunodeficiency virus type 1 group M subtype B, UniProt P04585); assay: HIV-RT RNase H activity assay (3H-labeled DNA:RNA hybrid); format: biochemical; details: intact HIV-RT 0.35 μM, R12-2 0.5-2 μM, FIG. 5
# T3 construct: The 66 kDa domain, p66, contains an RNase H domain in addition to the DNA polymerase domain; purchased Amersham Bioscience (Piscataway, N.J.)
# Experimental: HIV-RT RNase H activity assay. A DNA:RNA heteroduplex containing radiolabeled RNA was prepared as a substrate for the RNase H. A tritium-labeled RNA molecule, the stem loop 2 of the HIV psi-RNA (25), was made by in-vitro transcription using T7 RNA polymerase with a mixture of ATP, CTP, GTP and ^3H-UTP. Transcribed RNA was purified by centrifugation using Microcon YM-3 filters, to remove NTPs and other short RNA sequences. The purified RNA was annealed with the complementary DNA strand to give the DNA:RNA hybrid where the RNA strand is ^3H-labeled. HIV-RT (0.35 μM) was incubated with R12-2 thioaptamer (0.5-2 μM) in a buffer containing Tris-HCl (50 mM, pH 8.0), MgCl2 (6 mM), DTT (10 mM) and KCl (80 mM) for 30 min at 37° C. To this mixture, labeled DNA-RNA hybrid (40 000 cpm) was added to a final volume of 50 μl and incubated at 37° C. for 20 min. The reaction was quenched by addition of 150 μl of 10% trichloroacetic acid and the mixture was placed on ice for 10 min. The reaction mixture was filtered, washed and the amount of radioactivity in the filtrate was measured using a scintillation counter (Beckman Coulter, CA). The amount of radioactivity in the filtrate is regarded as proportional to RNase H activity.
# The ability of the thioaptamer R12-2 to inhibit RNase H activity was tested using a radio-labeled substrate of a DNA:RNA hybrid duplex, as described in Methods. […]
# [4] = system: HIV-1 SF162 (R5) in U373-MAGI-CCR5 cells; assay: HIV infection of ODN-transfected U373-MAGI-CCR5 cells; format: cell-based
# Text: Viruses and cells. HIV-1 SF162-R5 is a primary isolate that uses CCR5 as a coreceptor (R5), and was obtained from the NIH AIDS Research and Reference Reagent Program. U373-MAGI-CCR5 cells have modifications of the U373 astrocytoma adherent cells that allow use for HIV transfection and infection studies. U373-MAGI-CCR5 cells express β-gal under the control of HIV LTR, which is trans-activated by the HIV Tat protein in relation to the level of virus replication. In addition, these cells express CD4 and the human chemokine receptor CCR5 on its surface, which allow infection by primary HIV strains. U373 cells are propagated in 90% DMEM, 10% fetal bovine serum, 0.2 mg/ml G418, 0.1 mg/ml hydromycin B, and 1.0 μg/ml puromycin. For transfection and infection studies, U373 cells were maintained in 90% DMEM, 10% fetal bovine serum, and 1% penicillin/streptomycin. Thioaptamer RNase H-specific R12-2, control AP-1-specific or scrambled ODNs were transfected into the cells 24 hr prior to infection using Oligofectamine liposomes, according to the manufacturer's instructions (Invitrogen).
# Infection of ODN-transfected U373-MAGI-CCR5 cells. Transfected cells and control cells were infected with HIV at m.o.i. of 0.003 (which consistently gives high levels of viral production) for 2 hr. Equal volumes of medium were then added and infection was continued for 48 hr. HIV replication was quantitated in cell lysates by measurement of β-gal activity, determined by luminometry using the β-Glo kit (Promega), according to the manufacturer's guidelines. β-gal activity is expressed as relative light units (RLU). To determine HIV TCID50 in U373-MAGI-CCR5 cells, serial dilutions (10×) of SF162-R5 virus supernatant were innoculated onto a 24-well plate containing 3×10^4 U373 cells for 2 hr, then equal volumes of complete medium were added, and infection was continued for 48 hr. Cells then were lysed and assayed for HIV-directed β-gal expression, and TCID50 (50% tissue culture infective dose) was calculated from quadruplicates. The p24 antigen capture assay (Beckman-Coulter) was used to determine virus production in some studies, measured by p24 antigen concentration in the culture supernatants harvested at day 7 post-infection.
# [5] = biological target: T4, isolated RNase H domain (Human immunodeficiency virus type 1 group M subtype B, UniProt P04585); assay: RNase H activity of the isolated RNase H domain; format: biochemical, HIV
# T4 construct: encodes the 15 kDa RNase H domain of HIV-RT; made in house; host or cells: E. coli
molecule,measurement,setting,value
B1,binding to intact HIV-RT (EMSA),[1]; FIG. 4A,is binding
same,Kd,"[1]; intact HIV-RT, EMSA bound band intensity, Hill Plot, FIG. 4B, read-out: dissociation constant Kd",70 nM
same,Kd,"[1]; specific binding to HIV-RT, read-out: binding constant",70 nM
same,"binding to isolated RNase H domain (NMR, imino proton signal broadening)",[2],binding
same,inhibition of RNase H activity,[3],inhibit; also recorded: shows inhibition
same,reduction of infection,"[4]; Oligofectamine transfection 24 h prior to infection, HIV-SF162 m.o.i. 0.003, compared with untransfected or OF-only cells, FIG. 6",greater than 75%
same,inhibition of the virus at high m.o.i.,"[4]; R12-2 0.05 μg/ml, inocula m.o.i. 0.05 to 0.0005, FIG. 8",significant inhibition
same,reduction of virus production,[4]; high m.o.i.,more than 50%
same,suppression of virus compared with AZT,"[4]; m.o.i.≦0.005, AZT 10 μM, FIG. 8",comparable to that seen with AZT
same,IC50,"[4]; transfected 24 hrs prior to infection with HIV SF162, 48 hrs, doses 0.03 to 2.0 μg/ml, FIG. 7, read-out: IC50 (inhibition of HIV infection)",< 100 nM
same,effect on HIV infection / viral production,"[4]; transfected U373-MAGI-CCR5 cells, FIG. 6",inhibits; also recorded: markedly reduces
same,effect against the isolated RNase H domain,[5],not effective
